Source: article PMC2191085

Legend:
[1] = target: CD2 on human PBLs (human (endogenous in PBLs)) (UniProt P06729)
[2] = target: CD2 on Jurkat cells (human (endogenous in Jurkat)) (UniProt P06729); assay: inhibition of cell rosetting

Row | Substance | inhibition of T cell proliferation in response to HBsAg, LFA3TIP at 2 ug/ml [1] | fold lower concentration than LFA3TIP for inhibition of rosetting [2]
1 | LFA3TIP (first domain-LFA-3/IgG1 fusion protein) (Fc fusion) | 85% | –
2 | multimeric phosphoinositol-linked LFA-3 (PI-LFA-3) (ligand) | – | 300 fold
